Sequences and labels used below:
B1: B64 (antibody, V domains shown)
VH: QVQLRESGPSLVKPSQTLSLTCTVSGFSLSNYDVAWVRQPPGKALECLGGVSISGRTDYNPALKSRLSITKDNSKNQVSLSLSSVTTEDTATYYCAKFFGDYGYDYYGCGYGAGDHYVDAWGQGLLVAVSS
VL: QAVLTQPSSVSGSLGQRVSITCSGSSSNVGNGYVSWYQLIPGSAPRTLIYGDTSRASGVPDRFSGSRSGNTATLTISSLQAEDEADYFCASAEGSSSNAGFGSGTTLIVL
B2: E53 (antibody, V domains shown)
VH: QVQLRESGPSLVKPSQTLSLTCTVSGFSLSSYAVDWVRQAPGKALECLGGISRDGDISYNPALKSRLSITKDDSKSQVSLSLSSVTSEDTATYYCAKATDGGYFRSTYGCQGFTVNTYVDIWGQGFLVTVSS
VL: QAVLTQPSSLSGSLGQRVSITCSGSSGNIGTRDVSWYQQIPGSGLRTIIYGNSSRPSGVPDRFSGSRSGNTATLRIRSLQPEDEADYFCGSADYSSEIAVFGSGTTLTVL
B3: B81 (antibody, V domains shown)
VH: QVQLRESGPSLVKPSQTLSLTCTVSGFSLSNYAIGWVRQAPGKAPEWVVDTDVDGGTAYNPALKSRLSITKDNSKSQVSLSLNGVTPEDTATYYCVKLSRESAWLFFHVDAWGQGLLITISS
VL: QAVLTQPSSVSGSLGQSVSITCSGSSGNIGRYGVDWYQQVPGSGLRTIIYASSRRPSGVPDRFSGSKSGNTATLTISSLQAEDEADYFCAGGDENIIVPLFGAGTTLTVL
notes: also called HRP-B81
B4: A7 (antibody, V domains shown)
VH: QVQLRESGPSLVKPSQTLSLTCTVSGFSLSSYAVNWVRQAPGKALECLGGISSSGSTGYKPALKSRLSITKDNSKSQVSLSVSNVTPEDTATYYCVKSYWDYNDYGCCSGGNGVGFDAWGQGLLVTVSS
VL: QAVLTQPSSVSGSLGQRVSITCSGSSNNIGSYAVGWYQQVPGSGLRTIIYSSSSRPSGVPDRFSGSKSGNTATLTISSLQAEDEADYFCATADYSRSTAVFGSGTILTVL
B5: E10 (antibody, V domains shown)
VH: QVQLRESGPSLVKPSQTLSLTCTVSGFSLSSNGVVWVRQAPGKALEWVGCSRGEGSTFYNQALRSRLSITKDNSKSQVSLSVSSVTPEDTATYYCTKVYNGGCGRRGYDAAAYVDAWGQGLLVTVSS
VL: QAVLTQPSSVSGSLGQRVSITCSGRSNNIGGNGVGWYQQVPGSGLRTIIYGSSSRPSGVPDRFSGSKSGNTATLTISSLQAEDEADYFCATADYSSGTAVFGSGTTLTVL
B6: E9 (antibody, V domains shown)
VH: QVQLRESGPSLVKPSQTLSLTCTVSGFSLSNYAVSWVRQAPGKALECLGSISSDGNTGYNPALKSRLSITKDNSKSQVSLSVSSATPEDTATYYCTKCHYPGGCCGYWNDDHVDAWGQGLLVTVSS
VL: QAVLTQPSSVSGSLGQRVTITCSGSSSNIGMYDVGWYQQVPGSGLRTIIYGSSSRPSGVPDRFSGSKSGNTATLTIMSLQAEDEADYFCTTADYSSSTVVFGSGTTLTVL
B7: E28 (antibody, V domains shown)
VH: QVQLRESGPSLVKPSQTLSLTCTISGFSLSDYAVAWVRQAPGKAPEWVGGISTGGRTNYNPTLESRLSITKDNAKSQISLTVSSVTPEDTATYLCLRLACYDHEGYRCFGYDLNWGVDAWGQGLLVSVSS
VL: QAVLTQPSSVSGSLGQRVSITCSGSSTNIGTYYVGWYQQVPGSGLRTIIYGTTNRPSGVPDRFSGSKSSGNTATLTISSLQAEDEADYFCVTYDSTITPSAVFGSGTTLTVL
B8: E32 (antibody, V domains shown)
VH: QVQLRESGPSLVKPSQTLSLTCTVSGFSLSNYALNWVRQAPGKALECLGGIGPSGHTDYNPALKSRLIITKDNSKNQVSLSVSSVTPEDTATYICARDSGIYGTSGWGCIGGFDDNYIDAWGHGLLVTVSS
VL: QAVLTQPSSVSGSLGQRVSITCSGSSNNIGAHGVGWYQQIPGSGLRTIIYNNSKRPSGVPDRFSGSKSGNTATLTISSLQAGDEADYFCATSDYSTRSSAFGSGTTLTVL
B9: B54 (antibody, V domains shown)
VH: QVQLRESGPSLVKPSQTLSLTCTVSGFSLSSNAVVRVRQAPGKTLEWLGGICSGGATSFNPALKSRLSITKDNSKSQVSLSVSSVTPEDTATYYCMRVGSCFGCGDRCGYGYPYTYVDVWGQGLLVTVSP
VL: QAVLTQPSSVSGSLGQRVSITCSGSSSNVGTGNYVSWFQQIPGSAPRTLIYGATSRASGVPDRFSGSRSGNTATLTISSLQAEDEADYFCASYQIGNTAVFGSGTTLTVL
B10: E11 (antibody, V domains shown)
VH: QVQLRESGPSLVKPSQTLSLTCTVSGFSLNSYAVTWVRQAPGKALECLGSIGSRGGTGYNQALKSRLSITKNNSKSQVSLSVRSVTPEDTATYYCVKESGSGYWDDACWGFGVGDDYVDTWGHGLLVTVST
VL: QAVLTQPSSVSGSLGQRVSITCSGSSSNVGRGNYVSWFQQLPGAAPRTLIYAATSRASGVPDRFSGSRSGNTATLTISSLQAEEEAYYFCAVYDTSSKAAVFGSGTTLTVL
B11: B59 (antibody, V domains shown)
VH: QVQLRESGPSLVKPSQTLSLTCTVSGFSLSDYAVGWVRQAPGKALEWVGGISSGGTTCSKPALKSRLSITRDSSKSQVSLFVTSMTPEDTATYYCAKYFRHDYDVGCSYIMEAVDAWGQGLLVTVSS
VL: QAVLTQPSSVSGSLGQRVSITCSGSSSNVGRGNYVNWFQQIPGSAPRTLIYGATSRASGVPNRFSGSRSGNTATLTISSLQAEDEADYFCAVWDDNIRNAVFGSGTTLILL
B12: 62 (antibody, V domains shown)
VH: QVQLRESGPSLVKPSQTLSLTCTVSGFSLSDKDVGWVRQAPGTALEWLAVIYNAGSTSYNPTLESRLSITKDNSKSQVSLSLSSVTTEDTATYYCALGNYWAWGQGLLVTVSS
VL: QAALTQPSSVSGSLGQRVSITCSGSSSNIGRGNYVNWFQQIPGSAPRTLIYGATNRASGVPDRFSGSRSGDTATLTISPLQAEDEADYFCAAYDINGNAVFGSGTTLTVL
B13: B51 (antibody, V domains shown)
VH: QVQLRESGPSLVKPSQTLSLTCTVSGFSLSSYGVIWVRQAPGKALECLGQITTGGITGYNPALKSRLSITKDNSEGQVSLSLSSVTTEDTATYYCVKEHDNYGDFSGGCLHAAYVDTWGQGLLVTVSS
VL: QAVLTQPSSVSGSLGQRVSITCSGSSSNIGLYAVGWYQQVPGSGLRSIIYSSRSRPSGVPDRFSGSKSGNTATLTISSLQAEDEADYFCVAYDSSSDSAIFGSGTTLTVL
B14: 60 (antibody, V domains shown)
VH: QVQLRESGPSLVKPSQTLSLTCTISGFSLSDATVGWVRQASGKALEWLGAIWPSGSTGYNLGLKSRLTITKDNSKTQVFLSLNSLTPEDTATYHCTGGGIGFIWGQGLLVTVSP
VL: QAVLTQPSSVSGSLGQRVSITCSGSPNNVGLGNFVSWFQQIPGSAPRSLIYGATSRVSGVPDRFSGSRSMNTATLTISSLQAEDEADYFCASYERNNTGVFGSGTTLTVL
B15: F136 (antibody, V domains shown)
VH: QVQLRESGPSLVKPSQTLSLTCTVSGFSLSSKGVHWIRQAPGKALEWLGSTWSFGSAFNPALKSRLSITKDNSKSQVALSLSTVTPEDTATYYCARELYNGGSTWDAINGYNEERYYFDAWGQGLLVTVSS
VL: QAVLTQPSSVSGSLGQSVSITCSGSSSNVGYGNYVSWFQQIPGSAPRMLIYGATSRASGVPYRFSGSRSGNTATLTINSLQAEDEADYFCASPDSSSSGYFAVFGSGTTLTVL

The record followed here is article PMC6908506, “Development of Foot-and-Mouth Disease Virus-Neutralizing Monoclonal Antibodies Derived From Plasmablasts of Infected Cattle and Their Germline Gene Usage” (Frontiers in Immunology, 2019).

For one experiment, the target named is T1, FMDV O/Mya/98 146S antigen (Foot-and-mouth disease virus serotype …, UniProt G8JKC2, strain).
T1 construct: also called purified virus antigen; copies: + + +
In words: ELISA. To be noted: both partners purified. On the technique in general: In an ELISA, binding on a coated surface is turned into a signal by an enzyme label.
With B1, the binding result is given as “binds”. For the molecule B2, the binding result is “binds”. B3: the binding result was “binds”. For B4, the binding result was “binds”. Turning to B5, the binding result was “binds”. As to B6, the binding result is on record as “binds”. For B7, the binding result was “binds”. As for B8, the binding result is listed as “binds”. On the same count and under the same terms, the entry for B9 is “binds”. As for B10, the binding result was “binds”.

On to B11, for which the binding result was “binds”. Consider B12, for which the binding result is given as “binds”. B13: the binding result is “binds”. For B14, the binding result was “binds”.

Another experiment has as its target T1, FMDV O/Mya/98 146S antigen. As to the kind of experiment: cell-based or functional assay.
Details: not given
With B15, the “virus neutralizing test on BHK-21 cells, IC50” value was 1.67 µg/mL.
